The values below come from article PMC5687603.

Data set [1] is described as follows: GSH/GSSG-Glo luminescence assay. As to conditions: glycan lost; control: Skl (wild type).
Data set [2] in a line: DHE staining, flow cytometry, HEK293. To be noted: glycan lost; control: Skl (wild type). A general note: A flow cytometer gives signals particle by particle.

B1: short-form Klotho (Skl): Skl3N (protein)
parent chain: MLARAPPRRPPRLVLLRLLLLHLLLLALRARCLSAEPGQGAQTWARFARAPAPEAAGLLHDTFPDGFLWAVGSAAYQTEGGWRQHGKGASIWDTFTHHSGAAPSDSPIVVAPSGAPSPPLSSTGDVASDSYNNVYRDTEGLRELGVTHYRFSISWARVLPNGTAGTPNREGLRYYRRLLERLRELGVQPVVTLYHWDLPQRLQDTYGGWANRALADHFRDYAELCFRHFGGQVKYWITIDNPYVVAWHGYATGRLAPGVRGSSRLGYLVAHNLLLAHAKVWHLYNTSFRPTQGGRVSIALSSHWINPRRMTDYNIRECQKSLDFVLGWFAKPIFIDGDYPESMKNNLSSLLPDFTESEKRLIRGTADFFALSFGPTLSFQLLDPNMKFRQLESPNLRQLLSWIDLEYNHPPIFIVENGWFVSGTTKRDDAKYMYYLKKFIMETLKAIRLDGVDVIGYTAWSLMDGFEWHRGYSIRRGLFYVDFLSQDKELLPKSSALFYQKLIEDNGFPPLPENQPLEGTFPCDFAWGVVDNYVQVSPLTKPSVGLLLPH
In the case of B1, the “other: antioxidant activity (raising of GSH/GSSG ratio)” value in data set [1] is recorded as “abolishes”. Besides, in data set [2], the “other: antioxidant activity (lowering of intracellular O2-)” value is “decreases”.

B2: short-form Klotho (Skl): SklN285A (protein)
parent chain: MLARAPPRRPPRLVLLRLLLLHLLLLALRARCLSAEPGQGAQTWARFARAPAPEAAGLLHDTFPDGFLWAVGSAAYQTEGGWRQHGKGASIWDTFTHHSGAAPSDSPIVVAPSGAPSPPLSSTGDVASDSYNNVYRDTEGLRELGVTHYRFSISWARVLPNGTAGTPNREGLRYYRRLLERLRELGVQPVVTLYHWDLPQRLQDTYGGWANRALADHFRDYAELCFRHFGGQVKYWITIDNPYVVAWHGYATGRLAPGVRGSSRLGYLVAHNLLLAHAKVWHLYNTSFRPTQGGRVSIALSSHWINPRRMTDYNIRECQKSLDFVLGWFAKPIFIDGDYPESMKNNLSSLLPDFTESEKRLIRGTADFFALSFGPTLSFQLLDPNMKFRQLESPNLRQLLSWIDLEYNHPPIFIVENGWFVSGTTKRDDAKYMYYLKKFIMETLKAIRLDGVDVIGYTAWSLMDGFEWHRGYSIRRGLFYVDFLSQDKELLPKSSALFYQKLIEDNGFPPLPENQPLEGTFPCDFAWGVVDNYVQVSPLTKPSVGLLLPH
For B2, the “other: antioxidant activity (raising of GSH/GSSG ratio)” value in data set [1] is “abolishes”.
